Tests used:
[1] = target: T1, Full-length TIM-3 (TIM-3-full length) on TIM-3-overexpressing cells (human, UniProt Q8TDQ0 22-301); assay: binding to TIM-3-overexpressing cells, hybridoma screening (clones positive for cell binding)
T1 construct: It was used to construct the TIM-3-overexpressing cell lines; The template is UniProt Q8TDQ0 (printed); also called human TIM-3; HAVCR2

[2] = target: T2, TIM-3 extracellular region with Flag and His tags: TIM-3-Flag-His (human); assay: TIM-3 binding ELISA, hybridoma screening (clones positive for protein binding)
T2 construct: The template is UniProt Q8TDQ0 (printed); also called human TIM-3; HAVCR2

binding result [1]: binds
binding result [2]: binds
B1: mAb-1799 (antibody, V domains shown)
VH: EVKLVESEGGLVQPGSSMKLSCTASGFTFSDYYMAWVRQVPEKGLEWVANINYDGSSTYYLDSLKSRFIISRDNAKNILYLQMNSLKSDDTATYYCARDVGYYGGNYGFAYWGQGTLVTVSA
VL: DIQMTQSPASLSASVGETVTITCRASDNIYSYLAWYQQKQGKSPQLLVYNAKTLAEGVPSRFSGSGSGTQFSLKINSLQPEDFGSYYCQQHYGSPLTFGAGTKLELK
notes: Murine antibody secreted by a hybridoma
